The subject of series [1] is CovR (unphosphorylated) (Streptococcus pyogenes (M6 serotype, JRS4?)). The series is described as follows: DNase I footprinting. As to conditions: not given in the material (DNase I protection assay details absent).
In series [2] the test system is CovR-P (phosphorylated CovR) (Streptococcus pyogenes (M6 serotype, JRS4?)). The series is described as follows: DNase I footprinting. As to conditions: not given in the material (DNase I protection assay details absent).

Take Pska wild type: the binding signal in series [1] is 3 µM; in series [2], 0.25 µM.

For the origin of these results see paper PMC4130213.
